As usually defined, the Kd is the concentration at which binding is half-saturated.

Data on two molecules can be found in article PMC4654454 (ACS chemical biology, 2015).

Positions count from the first letter of the chain named. No end group written: not given here.

In data set [1] the target is T1, hORC1 BAH domain, wild type (human, UniProt Q13415 45-171).
T1 sequence: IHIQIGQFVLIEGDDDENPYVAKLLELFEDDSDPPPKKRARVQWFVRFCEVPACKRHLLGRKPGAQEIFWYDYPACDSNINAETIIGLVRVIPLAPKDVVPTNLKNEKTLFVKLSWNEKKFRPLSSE
The experiment in a line: EMSA. A general note: Mobility shift assays separate free from complexed probe on a gel.

Data set [2] addresses T2, human Origin Recognition Complex subunit 1 BAH domain, R105Q mutant (human, UniProt Q13415 45-171, R105Q).
T2 sequence (looked up): T1 sequence with R61Q
The experiment in a line: ITC. On the technique in general: In ITC the heat of successive injections is recorded.

In data set [3] the target is T3, human Origin Recognition Complex subunit 1 BAH domain, wild type (human, UniProt Q13415 45-171).
T3 sequence (looked up): T1 sequence
The experiment in a line: ITC.

B1: 14-bp DNA duplex (dsDNA)
DNA 1: GGAGGCCTCCTGCT
DNA 2: AGCAGGAGGCCTCC
For the molecule B1, the binding result in data set [1] is listed as “binds”.
For the molecule GAKRHRCVLRDNY (not fully specified (residue 7)) [histone H4(14–25)Kc20me2 peptide], the Kd in data set [2] was 8.33 µM; in data set [3], 8.85 µM.
